Results on 12 variants are retold here after IntAct's records for PubMed 31515488.

Sequences and labels used below:
B1: Seipin (Homo sapiens), Q96G97-4 (parent)
chain: MSTEKVDQKEEAGEKEVCGDQIKGPDKEEEPPAAASHGQGWRPGGRAARNARPEPGARHPALPAMVNDPPVPALLWAQEVGQVLAGRARRLLLQFGVLFCTILLLLWVSVFLYGSFYYSYMPTVSHLSPVHFYYRTDCDSSTTSLCSFPVANVSLTKGGRDRVLMYGQPYRVTLELELPESPVNQDLGMFLVTISCYTRGGRIISTSSRSVMLHYRSDLLQMLDTLVFSSLLLFGFAEQKQLLEVELYADYRENSYVPTTGAIIEIHSKRIQLYGAYLRIHAHFTGLRYLLYNFPMTCAFIGVASNFTFLSVIVLFSYMQWVWGGIWPRHRFSLQVNIRKRDNSRKEVQRRISAHQPGPEGQEESTPQSDVTEDGESPEDPSGTEGQLSEEEKPDQQPLSGEEELEPEASDGSGSWEDAALLTEANLPAPAPASASAPVLETLGSSEPAGGALRQRPTCSSS
partner: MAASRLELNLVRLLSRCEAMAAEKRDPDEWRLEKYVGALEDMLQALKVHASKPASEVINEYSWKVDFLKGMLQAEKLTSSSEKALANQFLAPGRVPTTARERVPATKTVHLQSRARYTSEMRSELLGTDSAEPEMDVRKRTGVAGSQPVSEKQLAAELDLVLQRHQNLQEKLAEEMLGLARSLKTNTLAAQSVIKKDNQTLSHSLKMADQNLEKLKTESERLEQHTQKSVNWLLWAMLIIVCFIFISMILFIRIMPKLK
B2: Myotubularin-related protein 9 (Homo sapiens), Q96QG7 (parent)
chain: MEFAELIKTPRVDNVVLHRPFYPAVEGTLCLTGHHLILSSRQDNTEELWLLHSNIDAIDKRFVGSLGTIIIKCKDFRIIQLDIPGMEECLNIASSIEALSTLDSITLMYPFFYRPMFEVIEDGWHSFLPEQEFELYSSATSEWRLSYVNKEFAVCPSYPPIVTVPKSIDDEALRKVATFRHGGRFPVLSYYHKKNGMVIMRSGQPLTGTNGRRCKEDEKLINATLRAGKRGYIIDTRSLNVAQQTRAKGGGFEQEAHYPQWRRIHKSIERYHILQESLIKLVEACNDQTHNMDRWLSKLEASNWLTHIKEILTTACLAAQCIDREGASILIHGTEGTDSTLQVTSLAQIILEPRSRTIRGFEALIEREWLQAGHPFQQRCAQSAYCNTKQKWEAPVFLLFLDCVWQILRQFPCSFEFNENFLIMLFEHAYASQFGTFLGNNESERCKLKLQQKTMSLWSWVNQPSELSKFTNPLFEANNLVIWPSVAPQSLPLWEGIFLRWNRSSKYLDEAYEEMVNIIEYNKELQAKVNILRRQLAELETEDGMQESP
B3: G1/S-specific cyclin-D3 (Homo sapiens), P30281 (parent)
chain: MELLCCEGTRHAPRAGPDPRLLGDQRVLQSLLRLEERYVPRASYFQCVQREIKPHMRKMLAYWMLEVCEEQRCEEEVFPLAMNYLDRYLSCVPTRKAQLQLLGAVCMLLASKLRETTPLTIEKLCIYTDHAVSPRQLRDWEVLVLGKLKWDLAAVIAHDFLAFILHRLSLPRDRQALVKKHAQTFLALCATDYTFAMYPPSMIATGSIGAAVQGLGACSMSGDELTELLAGITGTEVDCLRACQEQIEAALRESLREASQTSSSPAPKAPRGSSSQGPSQTSTPTDVTAIHL
B4: Cytochrome P450 4F12 (Homo sapiens), Q9HCS2 (parent)
chain: MSLLSLPWLGLRPVATSPWLLLLLVVGSWLLARILAWTYAFYNNCRRLQCFPQPPKRNWFWGHLGLITPTEEGLKNSTQMSATYSQGFTVWLGPIIPFIVLCHPDTIRSITNASAAIAPKDNLFIRFLKPWLGEGILLSGGDKWSRHRRMLTPAFHFNILKSYITIFNKSANIMLDKWQHLASEGSSRLDMFEHISLMTLDSLQKCIFSFDSHCQERPSEYIATILELSALVEKRSQHILQHMDFLYYLSHDGRRFHRACRLVHDFTDAVIRERRRTLPTQGIDDFFKDKAKSKTLDFIDVLLLSKDEDGKALSDEDIRAEADTFMFGGHDTTASGLSWVLYNLARHPEYQERCRQEVQELLKDRDPKEIEWDDLAQLPFLTMCVKESLRLHPPAPFISRCCTQDIVLPDGRVIPKGITCLIDIIGVHHNPTVWPDPEVYDPFRFDPENSKGRSPLAFIPFSAGPRNCIGQAFAMAEMKVVLALMLLHFRFLPDHTEPRRKLELIMRAEGGLWLRVEPLNVSLQ
partner: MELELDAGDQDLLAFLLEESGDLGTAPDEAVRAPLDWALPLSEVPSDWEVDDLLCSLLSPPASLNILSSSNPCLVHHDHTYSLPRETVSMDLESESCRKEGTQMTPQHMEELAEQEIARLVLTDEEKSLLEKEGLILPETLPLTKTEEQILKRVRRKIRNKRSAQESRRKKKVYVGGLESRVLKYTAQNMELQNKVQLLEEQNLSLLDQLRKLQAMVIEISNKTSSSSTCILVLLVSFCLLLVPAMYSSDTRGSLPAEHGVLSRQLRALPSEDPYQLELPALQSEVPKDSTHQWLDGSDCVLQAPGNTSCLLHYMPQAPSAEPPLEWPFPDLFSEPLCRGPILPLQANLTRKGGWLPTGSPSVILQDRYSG
B5: PHD finger protein 1 (Homo sapiens), O43189 (parent)
chain: MAQPPRLSRSGASSLWDPASPAPTSGPRPRLWEGQDVLARWTDGLLYLGTIKKVDSAREVCLVQFEDDSQFLVLWKDISPAALPGEELLCCVCRSETVVPGNRLVSCEKCRHAYHQDCHVPRAPAPGEGEGTSWVCRQCVFAIATKRGGALKKGPYARAMLGMKLSLPYGLKGLDWDAGHLSNRQQSYCYCGGPGEWNLKMLQCRSCLQWFHEACTQCLSKPLLYGDRFYEFECCVCRGGPEKVRRLQLRWVDVAHLVLYHLSVCCKKKYFDFDREILPFTSENWDSLLLGELSDTPKGERSSRLLSALNSHKDRFISGREIKKRKCLFGLHARMPPPVEPPTGDGALTSFPSGQGPGGGVSRPLGKRRRPEPEPLRRRQKGKVEELGPPSAVRNQPEPQEQRERAHLQRALQASVSPPSPSPNQSYQGSSGYNFRPTDARCLPSSPIRMFASFHPSASTAGTSGDSGPPDRSPLELHIGFPTDIPKSAPHSMTASSSSVSSPSPGLPRRSAPPSPLCRSLSPGTGGGVRGGVGYLSRGDPVRVLARRVRPDGSVQYLVEWGGGGIF
B6: U3 small nucleolar RNA-associated protein 25 homolog (Homo sapiens), Q68CQ4 (parent)
chain: MGKRGSRSQSQLLNTLTKKQKKHLRDFGEEHPFYDRVSRKEAKPQICQLSESSDSSDSESDSESEPQQVSGYHRLLATLKNVSEEEEEDEEEEEEEDSIVDDAEMNDEDGGSDVSVEEEMAAESTESPENVALSADPEGKEDGEEPPGTSQTSPEEFTDAKHESLFSLETNFLEEESGDNSSLKASQDPFLQHVNKELKEKAIQAVATNPKTTHELKWPILGQLFFSSKFQKLETFKPPKDIDLKSLHLQKPLESTWTKTNSQFLSGPQKSSSPFTPLQKELFLIMNSYRDLFYPERTALKNGEEIRHVYCLHVINHILKANAQVLGNNSRRRSQKFGVGDDDDFRDQGLTRPKVLIVVPFREAALRVVQLFISLLEGDSKKKIIVSNKKRFQGEYGSDPEERPPNLKRPEDYEAVFVGNIDDHFRIGVAILQRSIRLYAPFYSSDILIASPLGLRTIIGGEGEKKRDFDFLSSIELLIIDQADIYLMQNWEHVLHLMNHMNLLPLDSHGVDFSRVRMWSLNNWSKYYRQTLLFGALQDAQINSVFNKYCVNMQGQVAVRNVPMTGSISHVLVQLPHVFQRMEAENLASVIDARFNFFVNKILPQYRDAVMSHTLIYIPSYFDFVRLRNYFKKEELNFTHICEYTQKSGVSRARHFFLQGEKQFLLFTERFHFYKRYTIKGIRNLIFYELPTYPHFYSEICNMLRATNRGEEATWTCTVLYSKYDAQRLAAVVGVERAAQMLQSNKNVHLFITGEK

In one experiment the parent is B1. To be noted: with use1_human USE1, Q9NZ43.
For the variant D20E, the “effect of a mutation on the interaction” value is “with no effect”.

In the next experiment the parent is B2. To be noted: with lnx1_human LNX1, Q8TBB1.
Chain of lnx1_human LNX1, Q8TBB1 (Q8TBB1 whole entry): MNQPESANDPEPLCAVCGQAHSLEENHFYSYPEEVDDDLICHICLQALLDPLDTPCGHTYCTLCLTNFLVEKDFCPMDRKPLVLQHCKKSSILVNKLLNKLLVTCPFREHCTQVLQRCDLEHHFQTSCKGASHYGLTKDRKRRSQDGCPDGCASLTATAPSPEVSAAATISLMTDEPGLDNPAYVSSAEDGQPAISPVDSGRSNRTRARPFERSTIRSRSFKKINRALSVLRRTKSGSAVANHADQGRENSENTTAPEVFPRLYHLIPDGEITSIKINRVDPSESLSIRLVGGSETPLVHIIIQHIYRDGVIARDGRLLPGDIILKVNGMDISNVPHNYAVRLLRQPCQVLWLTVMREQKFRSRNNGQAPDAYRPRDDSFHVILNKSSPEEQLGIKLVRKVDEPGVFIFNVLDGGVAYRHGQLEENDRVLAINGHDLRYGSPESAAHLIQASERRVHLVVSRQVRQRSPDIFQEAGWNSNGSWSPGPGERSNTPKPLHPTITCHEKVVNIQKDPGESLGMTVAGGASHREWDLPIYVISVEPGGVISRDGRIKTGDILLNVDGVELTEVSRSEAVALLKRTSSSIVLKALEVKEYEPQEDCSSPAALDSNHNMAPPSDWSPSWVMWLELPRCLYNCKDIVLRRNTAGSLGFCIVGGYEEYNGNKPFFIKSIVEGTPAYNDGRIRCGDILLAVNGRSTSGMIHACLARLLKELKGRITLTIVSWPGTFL
For S126C, the “effect of a mutation on the interaction” value is “disrupting interaction strength”.

The variants in a further experiment derive from B2. To be noted: with emil1_human EMILIN1, Q9Y6C2.
Chain of emil1_human EMILIN1, Q9Y6C2 (Q9Y6C2 whole entry): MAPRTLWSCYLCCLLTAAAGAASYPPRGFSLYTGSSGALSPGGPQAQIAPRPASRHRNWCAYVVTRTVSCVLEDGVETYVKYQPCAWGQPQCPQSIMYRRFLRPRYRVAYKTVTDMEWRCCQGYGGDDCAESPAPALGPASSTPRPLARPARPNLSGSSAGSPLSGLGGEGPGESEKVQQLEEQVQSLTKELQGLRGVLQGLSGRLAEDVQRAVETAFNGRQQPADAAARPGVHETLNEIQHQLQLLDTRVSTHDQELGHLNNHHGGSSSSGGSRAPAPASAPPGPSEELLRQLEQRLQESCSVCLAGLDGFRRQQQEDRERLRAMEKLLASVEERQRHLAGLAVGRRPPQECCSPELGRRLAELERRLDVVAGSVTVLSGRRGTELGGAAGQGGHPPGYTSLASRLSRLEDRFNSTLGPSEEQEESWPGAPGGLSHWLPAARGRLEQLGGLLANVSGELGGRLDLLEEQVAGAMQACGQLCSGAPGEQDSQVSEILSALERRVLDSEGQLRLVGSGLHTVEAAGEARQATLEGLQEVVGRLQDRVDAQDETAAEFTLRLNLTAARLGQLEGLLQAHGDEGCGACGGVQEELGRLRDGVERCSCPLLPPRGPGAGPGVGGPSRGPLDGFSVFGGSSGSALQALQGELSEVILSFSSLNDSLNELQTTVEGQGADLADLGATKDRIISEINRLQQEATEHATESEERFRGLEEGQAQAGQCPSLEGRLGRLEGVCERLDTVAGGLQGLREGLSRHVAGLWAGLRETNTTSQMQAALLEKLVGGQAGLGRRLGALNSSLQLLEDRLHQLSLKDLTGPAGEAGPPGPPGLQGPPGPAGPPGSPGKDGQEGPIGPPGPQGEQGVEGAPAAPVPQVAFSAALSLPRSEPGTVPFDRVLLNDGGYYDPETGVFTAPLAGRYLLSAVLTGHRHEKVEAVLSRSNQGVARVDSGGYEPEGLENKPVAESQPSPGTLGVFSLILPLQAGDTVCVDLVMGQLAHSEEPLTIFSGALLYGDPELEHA
For S126C, the “effect of a mutation on the interaction” value is “with no effect”.

In another experiment the parent is B2. To be noted: with emil1_human EMILIN1, Q9Y6C2. This is another data set of the same source.
For F127I, the “effect of a mutation on the interaction” value is “with no effect”.

The next experiment covers variants of B2. To be noted: with lnx1_human LNX1, Q8TBB1. This is another data set of the same source.
Turning to F127I, the “effect of a mutation on the interaction” value is listed as “with no effect”.

In another experiment the parent is B3. To be noted: with cdk4_human CDK4, P11802.
Regarding S259A, the “effect of a mutation on the interaction” value is on record as “with no effect”.

With P134S, the “effect of a mutation on the interaction” value is given as “with no effect”.

A266V: the “effect of a mutation on the interaction” value is recorded as “with no effect”.

In a further experiment the parent is B3. To be noted: with tfp11_human TFIP11, Q9UBB9.
Chain of tfp11_human TFIP11, Q9UBB9 (Q9UBB9 whole entry): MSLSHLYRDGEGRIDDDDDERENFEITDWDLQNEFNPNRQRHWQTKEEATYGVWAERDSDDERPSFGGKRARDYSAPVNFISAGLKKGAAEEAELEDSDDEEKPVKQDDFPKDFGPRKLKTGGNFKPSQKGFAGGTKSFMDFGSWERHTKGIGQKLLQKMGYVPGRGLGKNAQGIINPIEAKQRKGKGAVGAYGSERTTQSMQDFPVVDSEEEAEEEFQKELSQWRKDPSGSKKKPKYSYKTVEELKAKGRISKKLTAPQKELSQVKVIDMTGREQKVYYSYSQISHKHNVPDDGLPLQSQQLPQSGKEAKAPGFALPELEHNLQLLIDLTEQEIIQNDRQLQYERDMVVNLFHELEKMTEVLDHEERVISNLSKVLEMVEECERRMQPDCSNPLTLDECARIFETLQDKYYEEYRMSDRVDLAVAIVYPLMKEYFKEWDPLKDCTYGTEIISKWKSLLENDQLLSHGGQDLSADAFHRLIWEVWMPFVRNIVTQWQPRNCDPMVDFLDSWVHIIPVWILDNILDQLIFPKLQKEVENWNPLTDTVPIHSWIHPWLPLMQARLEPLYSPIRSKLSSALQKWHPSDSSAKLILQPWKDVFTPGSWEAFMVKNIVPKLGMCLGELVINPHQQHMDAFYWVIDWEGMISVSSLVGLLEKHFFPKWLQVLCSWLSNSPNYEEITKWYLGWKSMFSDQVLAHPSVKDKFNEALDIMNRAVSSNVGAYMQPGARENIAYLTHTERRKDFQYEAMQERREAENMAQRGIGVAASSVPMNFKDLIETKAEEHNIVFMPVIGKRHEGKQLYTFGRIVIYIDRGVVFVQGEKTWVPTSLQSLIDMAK
On to S259A, for which the “effect of a mutation on the interaction” value is reported as “with no effect”.

In another experiment the parent is B3. To be noted: with cdk6_human CDK6, Q00534.
Chain of cdk6_human CDK6, Q00534 (Q00534 whole entry): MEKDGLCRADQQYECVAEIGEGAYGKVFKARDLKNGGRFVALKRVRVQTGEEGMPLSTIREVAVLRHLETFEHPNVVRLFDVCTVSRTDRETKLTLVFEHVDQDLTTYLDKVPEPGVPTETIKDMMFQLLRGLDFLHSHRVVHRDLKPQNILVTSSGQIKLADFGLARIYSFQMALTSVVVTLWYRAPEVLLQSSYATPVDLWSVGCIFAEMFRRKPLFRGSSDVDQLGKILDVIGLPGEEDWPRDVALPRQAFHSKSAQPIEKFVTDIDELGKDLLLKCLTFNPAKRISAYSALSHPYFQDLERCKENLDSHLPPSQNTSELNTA
Take E253D: the “effect of a mutation on the interaction” value is “with no effect”.

For the variant P134S, the “effect of a mutation on the interaction” value is “with no effect”.

In the case of A266V, the “effect of a mutation on the interaction” value is recorded as “with no effect”.

In the next experiment the parent is B3. To be noted: with cdn1a_human CDKN1A.
For the variant E253D, the “effect of a mutation on the interaction” value is reported as “with no effect”.

In a further experiment the parent is B4. To be noted: with creb3_human CREB3, O43889.
Take R272Q: the “effect of a mutation on the interaction” value is “with no effect”.

With R254W, the “effect of a mutation on the interaction” value is given as “disrupting interaction strength”.

The variants in the next experiment derive from B5. To be noted: with dhb14_human HSD17B14, Q9BPX1.
For the variant S14L, the “effect of a mutation on the interaction” value was “with no effect”.

The variants in a further experiment derive from B5. To be noted: with tri23_human TRIM23, P36406.
Consider S14L, for which the “effect of a mutation on the interaction” value was “with no effect”.

Variants of B5 are the subject of another experiment. To be noted: with pdli7_human PDLIM7, Q9NR12.
Turning to S14L, the “effect of a mutation on the interaction” value was “with no effect”.

Variants of B6 are the subject of a further experiment. To be noted: with rufy1_human RUFY1, Q96T51.
Chain of rufy1_human RUFY1, Q96T51 (Q96T51 whole entry): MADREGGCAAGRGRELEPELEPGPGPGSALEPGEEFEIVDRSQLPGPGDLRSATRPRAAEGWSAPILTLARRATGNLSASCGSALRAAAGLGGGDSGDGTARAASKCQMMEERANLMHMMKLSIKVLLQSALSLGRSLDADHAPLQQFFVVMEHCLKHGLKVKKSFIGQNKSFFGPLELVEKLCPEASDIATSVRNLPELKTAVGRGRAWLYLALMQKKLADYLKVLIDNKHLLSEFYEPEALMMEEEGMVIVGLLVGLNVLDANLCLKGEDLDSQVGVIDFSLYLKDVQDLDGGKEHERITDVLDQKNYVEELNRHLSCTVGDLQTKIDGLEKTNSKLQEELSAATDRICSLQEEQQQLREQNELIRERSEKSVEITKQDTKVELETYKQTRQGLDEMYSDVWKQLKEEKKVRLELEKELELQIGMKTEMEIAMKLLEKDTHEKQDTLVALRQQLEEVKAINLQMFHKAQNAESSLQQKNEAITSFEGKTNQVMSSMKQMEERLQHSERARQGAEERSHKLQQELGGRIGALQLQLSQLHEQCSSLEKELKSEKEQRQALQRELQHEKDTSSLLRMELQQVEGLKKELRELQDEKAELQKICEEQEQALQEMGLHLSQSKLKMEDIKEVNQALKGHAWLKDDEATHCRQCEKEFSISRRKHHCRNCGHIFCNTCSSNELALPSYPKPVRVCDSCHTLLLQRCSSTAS
With Q67E, the “effect of a mutation on the interaction” value was “with no effect”.

As for G111D, the “effect of a mutation on the interaction” value was “with no effect”.

Variants of B6 are the subject of the next experiment. To be noted: with cep70_human CEP70, Q8NHQ1.
Chain of cep70_human CEP70, Q8NHQ1 (Q8NHQ1 whole entry): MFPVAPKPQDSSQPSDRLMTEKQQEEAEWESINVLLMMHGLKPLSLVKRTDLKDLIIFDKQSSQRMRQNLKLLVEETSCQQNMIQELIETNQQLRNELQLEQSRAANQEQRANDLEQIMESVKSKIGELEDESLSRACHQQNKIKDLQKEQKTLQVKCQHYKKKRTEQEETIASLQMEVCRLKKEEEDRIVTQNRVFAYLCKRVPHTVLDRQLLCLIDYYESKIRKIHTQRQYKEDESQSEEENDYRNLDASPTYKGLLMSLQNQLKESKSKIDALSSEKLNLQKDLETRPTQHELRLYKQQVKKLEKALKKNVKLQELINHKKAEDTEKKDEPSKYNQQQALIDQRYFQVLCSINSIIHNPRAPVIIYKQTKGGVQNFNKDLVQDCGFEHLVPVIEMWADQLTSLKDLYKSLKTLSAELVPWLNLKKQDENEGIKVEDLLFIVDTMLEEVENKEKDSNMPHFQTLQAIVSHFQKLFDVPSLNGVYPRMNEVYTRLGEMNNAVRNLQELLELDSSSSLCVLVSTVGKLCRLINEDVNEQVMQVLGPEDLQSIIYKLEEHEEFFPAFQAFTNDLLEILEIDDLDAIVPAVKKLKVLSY
Q67E: the “effect of a mutation on the interaction” value is “with no effect”.

As to G111D, the “effect of a mutation on the interaction” value was “with no effect”.

The next experiment covers variants of B6. To be noted: with trim1_human MID2, Q9UJV3.
Chain of trim1_human MID2, Q9UJV3 (Q9UJV3 whole entry): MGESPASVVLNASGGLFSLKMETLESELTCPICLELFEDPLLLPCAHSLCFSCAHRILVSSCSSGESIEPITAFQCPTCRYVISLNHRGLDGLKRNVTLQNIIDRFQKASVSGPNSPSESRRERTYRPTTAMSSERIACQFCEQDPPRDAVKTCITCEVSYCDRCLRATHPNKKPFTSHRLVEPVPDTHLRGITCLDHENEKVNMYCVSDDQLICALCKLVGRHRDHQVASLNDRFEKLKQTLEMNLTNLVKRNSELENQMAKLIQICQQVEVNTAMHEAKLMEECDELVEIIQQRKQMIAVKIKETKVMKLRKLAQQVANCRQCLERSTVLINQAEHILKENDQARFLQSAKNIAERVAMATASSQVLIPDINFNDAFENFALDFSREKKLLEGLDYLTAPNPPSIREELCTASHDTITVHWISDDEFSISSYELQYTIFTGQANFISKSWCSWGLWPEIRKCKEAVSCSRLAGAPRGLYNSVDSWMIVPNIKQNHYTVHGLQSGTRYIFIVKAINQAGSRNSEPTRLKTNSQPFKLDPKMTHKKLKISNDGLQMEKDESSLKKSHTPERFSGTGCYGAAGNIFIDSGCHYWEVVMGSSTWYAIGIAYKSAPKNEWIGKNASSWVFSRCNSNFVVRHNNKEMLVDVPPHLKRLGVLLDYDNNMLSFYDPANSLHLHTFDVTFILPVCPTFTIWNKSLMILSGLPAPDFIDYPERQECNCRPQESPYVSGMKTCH
Consider Q67E, for which the “effect of a mutation on the interaction” value is on record as “with no effect”.

On to G111D, for which the “effect of a mutation on the interaction” value was “with no effect”.
